Experimental data published in patent US20250026849A1 (ARCELLX, published 2025).
Each block holds one binder with its values, some of them ahead of it.

Target: T1, CD123 (Homo sapiens (Human), UniProt P26951 19-305, limits assumed)
T1 construct: also called CD123-Signal
T1 sequence: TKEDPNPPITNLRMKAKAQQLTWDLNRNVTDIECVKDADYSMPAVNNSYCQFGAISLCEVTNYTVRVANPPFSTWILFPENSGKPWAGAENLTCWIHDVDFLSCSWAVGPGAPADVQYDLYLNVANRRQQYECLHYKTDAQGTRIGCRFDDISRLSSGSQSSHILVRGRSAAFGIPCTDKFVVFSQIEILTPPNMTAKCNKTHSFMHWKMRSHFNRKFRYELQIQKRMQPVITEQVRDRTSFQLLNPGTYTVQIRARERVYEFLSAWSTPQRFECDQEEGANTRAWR
Experiment: ELISA, format not described
Design: unit not given here

B1: D domain SEQ ID NO: 678 (designed binder)
chain: MGSWFEFEERLNAISWRLHALGGSEAELAYFEEDIAWFEDDLQFYKGKGNPEVEALENEAYAIWEELDAYRHN
ELISA_avg: 13

B4: D domain SEQ ID NO: 670 (designed binder)
chain: MGSWWEFEDRLWAIEQRLDALGGSEAELAVFENSIAKFEDMLQVYKGKGNPEVEALHEEADAIIWELYAYRHN
ELISA_avg: 4.4

B5: D domain SEQ ID NO: 667 (designed binder)
chain: MGSWHEFIWRLDAIEERLWALGGSEAELAWFETEIATFEAQLQDYKGKGNPEVEALEWEAIAIAWELDAYRHN
ELISA_avg: 3.3

B6: D domain SEQ ID NO: 668 (designed binder)
chain: MGSWYEFYWRLEAIEERLWALGGSEAELAEFEKAIATFEDQLQTYKGKGNPEVEALETEALAIHAELEAYRHN
ELISA_avg: 3.7

B7: D domain SEQ ID NO: 680 (designed binder)
chain: MGSWAEFDDRLEAIEYRLHALGGSEAELAWFEEGIAGFEHALQSYKGKGNPEVEALETEAGAINEELWAYRHN
ELISA_avg: 5.8

B15: D domain SEQ ID NO: 675 (designed binder)
chain: MGSWYEFEDRLAAIEARLWALGGSEAELADFEEEIAYFEHGLQWYKGKGNPEVEALESEAMAIIDELHAYRHN
ELISA_avg: 3.8

B16: D domain SEQ ID NO: 673 (designed binder)
chain: MGSWAEFEDRLAAIERRLEALGGSEAELADFESSIAWFEPDLQYYKGKGNPEVEALMYEAEAIFSELYAYRHN
ELISA_avg: 4.2

B18: D domain SEQ ID NO: 679 (designed binder)
chain: MGSWFEFEERLEAIIYRLWALGGSEAELAMFEESIAWFESDLQQYKGKGNPEVEALEYEAMAISKELKAYRHN
ELISA_avg: 3.7

B20: D domain SEQ ID NO: 672 (designed binder)
chain: MGSWWEFLDRLEAIEYRLQALGGSEAELAVFEWEIAMFEDHLQGYKGKGNPEVEALHSEAHAIISELSAYRHN
ELISA_avg: 3.1

B21: D domain SEQ ID NO: 674 (designed binder)
chain: MGSWWEFYDRLTAIEARLWALGGSEAELADFEEGIADFEYDLQDYKGKGNPEVEALFWEAWAIQSELTAYRHN
ELISA_avg: 3.2

B22: D domain SEQ ID NO: 676 (designed binder)
chain: MGSWWEFSWRLEAIETRLDALGGSEAELAFFEMDIAWFEQDLQLYKGKGNPEVEALEEEAYAIYEELEAYRHN
ELISA_avg: 3.3

B23: D domain SEQ ID NO: 677 (designed binder)
chain: MGSWEEFFFRLEAIDDRLYALGGSEAELALFEEVIAYFEQDLQWYKGKGNPEVEALYVEAYAIQEELYAYRHN
ELISA_avg: 3.2

B25: D domain SEQ ID NO: 671 (designed binder)
chain: MGSWWEFEDRLWAIDRRLMALGGSEAELAVFEQMIAHFEQILQVYKGKGNPEVEALHFEAHAIGMELAAYRHN
ELISA_avg: 4.6

B26: D domain SEQ ID NO: 669 (designed binder)
chain: MGSWFEFQWRLEAIEDRLWALGGSEAELAEFETIIAGFEEQLQVYKGKGNPEVEALEEEAMAIQTELHAYRHN
ELISA_avg: 3.4

B29: D domain SEQ ID NO: 681 (designed binder)
chain: MGSWDEFEERLQAIEYRLWALGGSEAELAWFEEVIAQFEYDLQKYKGKGNPEVEALSTEAQAIQDELWAYRHN
ELISA_avg: 3.8

Now from value to binder:

ELISA_avg: 5.7
B2: D domain SEQ ID NO: 689 (designed binder)
chain: MGSWEEFEQRLWAIDDRLWALGGSEAELAFFEYEIAEFEMDLQWYKGKGNPEVEALFYEAHAINEELWAYRHN

ELISA_avg: 5.6
B3: D domain SEQ ID NO: 687 (designed binder)
chain: MGSWREFHDRLFAIDGRLWALGGSEAELANFEWDIADFEFELQDYKGKGNPEVEALSWEADAIMQELGAYRHN

ELISA_avg: 6.5
B8: D domain SEQ ID NO: 688 (designed binder)
chain: MGSWEEFDERLWAISDRLWALGGSEAELAYFEGEIAYFEQNLQTYKGKGNPEVEALQTEALAIDTELWAYRHN

ELISA_avg: 16.6
B9: D domain SEQ ID NO: 683 (designed binder)
chain: MGSWWEFTDRLEAIEDRLWALGGSEAELAHFEDSIAQFEQELQWYKGKGNPEVEALADEADAIESELHAYRHN

ELISA_avg: 7.7
B10: D domain SEQ ID NO: 693 (designed binder)
chain: MGSWHEFDDRLDAIMSRLDALGGSEAELATFEAEIATFEFVLQLYKGKGNPEVEALLAEAYAIDWELEAYRHN

ELISA_avg: 4.3
B11: D domain SEQ ID NO: 698 (designed binder)
chain: MGSWYEFEDRLDAILYRLLALGGSEAELAWFERDIAFFESELQWYKGKGNPEVEALEWEAMAIDDELFAYRHN

ELISA_avg: 4.7
B12: D domain SEQ ID NO: 694 (designed binder)
chain: MGSWYEFFDRLDAIYDRLYALGGSEAELASFEAQIAEFEVELQSYKGKGNPEVEALEWEAWAIDEELYAYRHN

ELISA_avg: 7.5
B13: D domain SEQ ID NO: 682 (designed binder)
chain: MGSWWEFTDRLDAIFDRLWALGGSEAELAAFEESIAIFEQDLQYYKGKGNPEVEALEYEANAIQYELEAYRHN

ELISA_avg: 6.5
B14: D domain SEQ ID NO: 691 (designed binder)
chain: MGSWVEFEYRLDAISDRLWALGGSEAELAFFENEIASFESDLQFYKGKGNPEVEALMFEAEAIDDELHAYRHN

ELISA_avg: 3
B17: D domain SEQ ID NO: 686 (designed binder)
chain: MGSWEEFYYRLHAIDNRLWALGGSEAELAYFEWHIADFELELQDYKGKGNPEVEALSEEATAIFEELWAYRHN

ELISA_avg: 4
B19: D domain SEQ ID NO: 692 (designed binder)
chain: MGSWDEFDTRLDAIFSRLYALGGSEAELAMFEGEIAEFEGSLQHYKGKGNPEVEALDFEAHAIDEELWAYRHN

ELISA_avg: 3.7
B24: D domain SEQ ID NO: 690 (designed binder)
chain: MGSWDEFHQRLAAIGDRLWALGGSEAELAYFEWEIATFEWDLQVYKGKGNPEVEALYFEATAIDEELMAYRHN

ELISA_avg: 3.9
B27: D domain SEQ ID NO: 696 (designed binder)
chain: MGSWLEFEDRLVAIDHRLFALGGSEAELAEFEEEIALFESYLQDYKGKGNPEVEALNWEADAIHAELYAYRHN

ELISA_avg: 5.1
B28: D domain SEQ ID NO: 697 (designed binder)
chain: MGSWYEFESRLDAIVDRLWALGGSEAELAEFEYEIAKFEWELQDYKGKGNPEVEALNWEAGAIEFELYAYRHN

ELISA_avg: 4
B30: D domain SEQ ID NO: 684 (designed binder)
chain: MGSWVEFFWRLDAIEDRLWALGGSEAELANFEFEIADFEAWLQKYKGKGNPEVEALHSEADAIQLELRAYRHN

ELISA_avg: 6.9
B31: D domain SEQ ID NO: 685 (designed binder)
chain: MGSWVEFYNRLDAIENRLWALGGSEAELAFFEELIAQFEFALQDYKGKGNPEVEALEDEADAIWEELMAYRHN

ELISA_avg: 6.6
B32: D domain SEQ ID NO: 695 (designed binder)
chain: MGSWFEFLYRLDAIEDRLWALGGSEAELAEFEQEIAKFESELQSYKGKGNPEVEALEWEAHAIDMELEAYRHN
